According to patent US20230263916A1 (NANOMAB TECHNOLOGY, published 2023):
Changes are numbered by the printed parent chain. One block for each binder: values may come before it.

Key:
[1] = molecular target: T1, human Her2 (ECD)-Fc protein (human, UniProt P04626 23-652); assay: PE-ELISA, crude extract on antigen-coated plate
T1 construct: extracellular domain; Made in HEK293F cells; also called hHer2 (ECD)-Fc antigen; Her2 (ECD)-Fc antigen; not shown: TEV restriction site at the C-terminal of hHer2 (ECD); IgG1 Fc of the pFUSE-IgG1 vector
Method: (§1) (1) 10 μg Her2 (ECD)-Fc antigen (10 μg Fc in NaHCO₃ as control) dissolved in 100 mM NaHCO₃ (pH 8.2) was coupled to a NUNC plate then incubated at 4° C. overnight.
(§2) (5) The unbound antibody was washed off with PBST.
(§3) (6) When the OD value of the sample was over 3 times of the OD value of the control sample (Ratio+/−>3), the tested sample was determined to be a positive clone. […] Then all the positive clones were transferred to LA medium for plasmid extraction and sequencing.

[2] = molecular target: T1, human Her2 (ECD)-Fc protein; assay: PE-ELISA, A405 of antigen well over control well
Method: as §1, §2, §3

B1: Nanobody No. 12 (VHH)
VHH: QVQLQESGGGSVQAGETLRLSCTASGFTFDDSDMGWYRQAPGNECELVSTISSDGSTYYADSVKGRFTISQDNAKNTVYLQMNSLKPEDTAVYYCAADGHKYELGTCAALDYWGRGTQVTVSS
notes: also called 12; not shown: tags (HA, His) implied by anti-HA detection and nickel column
A405+ [1]: 2.18 A405
Ratio(+/-) [2]: 25.6

B2: Nanobody No. 1 (VHH)
VHH: B1 VHH with D98H, G99P, H100L, K101H
notes: not shown: tags (HA, His) implied by anti-HA detection and nickel column
A405+ [1]: 1.72 A405
Ratio(+/-) [2]: 22.3

B3: Nanobody No. 8 (VHH)
VHH: B1 VHH with D31E, D33V, A60S, D61N, G99D, K101T, A108E, D111N
notes: as for B2
A405+ [1]: 2.56 A405
Ratio(+/-) [2]: 28

B5: Nanobody No. 20 (VHH)
VHH: QVQLQESGGGSVQAGGSLRLSCTASGFTFDDSVMGWFRKAPGNECELVSTISSDGSTYYADSVKGRFTISQDNAKNTVYLQMNNLKPEDTAVYYCAAINSGYELGTCESLDYWGRGTQVTVSS
notes: also called 20; not shown: tags (HA, His) implied by anti-HA detection and nickel column
A405+ [1]: 1.47 A405
Ratio(+/-) [2]: 10.2

B6: Nanobody No. 14 (VHH)
VHH: B1 VHH with T50R, D98L, G99E, H100W, K101E, A108E, R115Q
notes: also called 14; not shown: tags (HA, His) implied by anti-HA detection and nickel column
A405+ [1]: 1.96 A405
Ratio(+/-) [2]: 24.4

B8: Nanobody No. 2 (VHH)
VHH: B1 VHH with T77A, D98H, G99P, H100L, K101H
notes: as for B2
A405+ [1]: 1.53 A405
Ratio(+/-) [2]: 19.3

B9: Nanobody No. 11 (VHH)
VHH: B1 VHH with T50H, D54G, H100S, K101N
notes: also called 11; not shown: tags (HA, His) implied by anti-HA detection and nickel column
A405+ [1]: 1.88 A405
Ratio(+/-) [2]: 25.5

B10: Nanobody No. 15 (VHH)
VHH: QVQLQESGGGSVQAGGSLRLSCTASRFTFDDSDMGWYRQAPGNECELVSTISSDGATYYANSVKGRFTISQDNAANTVYLQMNSLKPEDTAVYYCAALEWEYELGTCEALDYWGQGTQVTVSS
notes: also called 15; not shown: tags (HA, His) implied by anti-HA detection and nickel column
A405+ [1]: 2.27 A405
Ratio(+/-) [2]: 26.1

B11: Nanobody No. 16 (VHH)
VHH: B10 VHH with R26G, G35V, T50R, A56S, N61D, A75K
notes: also called 16; not shown: tags (HA, His) implied by anti-HA detection and nickel column
A405+ [1]: 1.79 A405
Ratio(+/-) [2]: 23.5

B14: Nanobody No. 18 (VHH)
VHH: QVQLQESGGGSVQAGQTLRLSCTASGFTFDDSDMAWYRQAPGNECELVSKMRSDGSTYYADSVKGRFTISQDNAKNTVYLQMNSLKPEDTAVYYCAEDLPYGLGTCTSLDYWGRGTQVTVSS
notes: also called 18; not shown: tags (HA, His) implied by anti-HA detection and nickel column
A405+ [1]: 1.59 A405
Ratio(+/-) [2]: 19.2

B15: Nanobody No. 39 (VHH)
VHH: QVQLQESGGGSVQAGGSLRLSCAASGYTYTGYCMGWFRQAPGKEREGVATIDSDGDTSYADSVKGRFTISKDNAKNTLYLQMNSLKPEDTAMYYCAADFRRWHLCSSSFREDGMDYWGKGTQVTVSS
notes: also called 39; not shown: tags (HA, His) implied by anti-HA detection and nickel column
A405+ [1]: 1.86 A405
Ratio(+/-) [2]: 17.8

B18: Nanobody No. 3 (VHH)
VHH: QVQLQESGGGSVQAGGSLRLSCTASGFTFDDSDVRWYRQAPGRECKLVSSISSDRSAYYEDSVKGRFTISQDNAKNTVYLQMNSLKPEDTAVYYCAAHPLHYELGTCAALDYWGRGTQVTVSS
notes: as for B2
A405+ [1]: 1.31 A405
Ratio(+/-) [2]: 13

B19: Nanobody No. 4 (VHH)
VHH: QVQLQESGGGLVQPGGSLRLSCTASRFTFDDSDMAWYRQAPGNECELVSIISSDGSTYYADSVKGRFTISLDNTKSTVYLQMNSLKPEDTAVYYCAAHPLHYELGTCAALDYWGRGTQVTVSS
notes: as for B2
A405+ [1]: 1.97 A405
Ratio(+/-) [2]: 21.2

B20: Nanobody No. 6 (VHH)
VHH: QVQLQESGGGSVQAGETLRLSCTASGFTFDDSDMGWYRQAPGNECELVSHISSDGSTYYADSVKGRFTISQDNAKNTVFLQMNSLKPEDTAVYYCAADKDARGYELGTCESLDYWGRGTQVTVSS
notes: as for B2
A405+ [1]: 2.14 A405
Ratio(+/-) [2]: 23.4

B21: Nanobody No. 7 (VHH)
VHH: B20 VHH with H50T, F79Y
notes: as for B2
A405+ [1]: 2.24 A405
Ratio(+/-) [2]: 27.4

B23: Nanobody No. 5 (VHH)
VHH: QVQLQESGGGSVQAGGSLRLSCTVSGFSFDDSDMGWYRRAPGNECELVSGISRDGSTYYADSVKGRFTISQDNAKNWVYLQMNSLKPEDTAVYYCAAATYSDYVCDYWTQGTQVTVSS
notes: as for B2
A405+ [1]: 1.1 A405
Ratio(+/-) [2]: 12.7

B24: Nanobody No. 19 (VHH)
VHH: QVQLQESGGGSVQAGGSLRLSCTASGFTFDDSDSDMGWYRQAPGNECELVSSISSDGSTYYADSVKGRFTISQDNAKNTVYLQMNSLKPEDTAVYYCAAINSGYELGTCESLDYWGRGTQVTVSS
notes: also called 19; not shown: tags (HA, His) implied by anti-HA detection and nickel column
A405+ [1]: 1.77 A405
Ratio(+/-) [2]: 19.6

B25: Nanobody No. 24 (VHH)
VHH: B24 VHH with G16E, S17T
notes: also called 24; not shown: tags (HA, His) implied by anti-HA detection and nickel column
A405+ [1]: 2.68 A405
Ratio(+/-) [2]: 23.7

B27: Nanobody No. 21 (VHH)
VHH: B24 VHH with S11L, A14P, G15R
notes: also called 21; not shown: tags (HA, His) implied by anti-HA detection and nickel column
A405+ [1]: 2.09 A405
Ratio(+/-) [2]: 20.3

B28: Nanobody No. 33 (VHH)
VHH: QVQLQESGGGSVQAGGSLRLSCTASGFTFDDVDMGWYRQAPGNECELVSTISSDGSTYYADSVKGRFTISQDNAKNTVYLQMNSLKPEDTAMYYCAAARYSDYEGMCGYWSQGTQVTVSS
notes: also called 33; not shown: tags (HA, His) implied by anti-HA detection and nickel column
A405+ [1]: 2.05 A405
Ratio(+/-) [2]: 21.3

Other lines, results leading:

A405+ [1]: 1.86 A405
Ratio(+/-) [2]: 23.3
B4: Nanobody No. 28 (VHH)
VHH: QVQLQESGGGLVQPGGSLRLSCAASGFTFGDSGMGWYRQAPGNECELVSSVSSDGSTYYADSVKGRFTISQDNAKNTVYLRMNSLKPEDTAVYYCAADDHKYELGTCEALDYWGRGTQVTVSS
notes: also called 28; not shown: tags (HA, His) implied by anti-HA detection and nickel column

A405+ [1]: 2.31 A405
Ratio(+/-) [2]: 23.9
B7: Nanobody No. 30 (VHH)
VHH: B1 VHH with S56R, T68A, D72N, G99Q, K101R, E103G, A108E
notes: also called 30; not shown: tags (HA, His) implied by anti-HA detection and nickel column

A405+ [1]: 1.65 A405
Ratio(+/-) [2]: 21.4
B12: Nanobody No. 31 (VHH)
VHH: QVQLQESGGGSVQAGETLRLSCTASGFTFNDSNMGWYRQAPGHECELVSTISSDGSTYYADSVKGRFTISQNNARNTVYLQMNSLKPEDTAVYYCAGDWGYELGICTSLDYWGQGTQVTVSS
notes: also called 31; not shown: tags (HA, His) implied by anti-HA detection and nickel column

A405+ [1]: 1.48 A405
Ratio(+/-) [2]: 18.8
B13: Nanobody No. 29 (VHH)
VHH: QVQLQESGGGSVQAGGSLRLSCTASGFTFDDLDMRWYRQAPGNECELVSIINSDGRTYYADSVKGRFAISQNNAKNTVYLQMNSLKPEDTAVYYCAADQHRYGLGTCEALDYWGRGTQVTVSS
notes: also called 29; not shown: tags (HA, His) implied by anti-HA detection and nickel column

A405+ [1]: 1.57 A405
Ratio(+/-) [2]: 19.1
B16: Nanobody No. 40 (VHH)
VHH: B15 VHH with G16E, S17T, P41T, S58T, A74G, R110Q, D112Y, G113D
notes: also called 40; not shown: tags (HA, His) implied by anti-HA detection and nickel column

A405+ [1]: 1.66 A405
Ratio(+/-) [2]: 20.5
B17: Nanobody No. 27 (VHH)
VHH: QVQLQESGGGSVQAGETLRLSCTASGFTFDDSDMGWYRQAPGNECELVSTISSDGSTYYADSVKGRFTISQDNAKNTVYLQMNSLKPEDTAVYYCAADHGGGYELGTCAALDYWGRGTQVTVSS
notes: also called 27; not shown: tags (HA, His) implied by anti-HA detection and nickel column

A405+ [1]: 2.14 A405
Ratio(+/-) [2]: 21.8
B22: Nanobody No. 38 (VHH)
VHH: QVQLQESGGGSVQAGGSLRLSCAASGFTYTGYCMGWFRQAPGKEREGVATVDSDGDTSYADSVKGRFTISKDNAKNTLYLQMNSLKPEDTAMYYCAADFSRWHLCSTSLATLGYWGQGTQVTVSS
notes: also called 38; not shown: tags (HA, His) implied by anti-HA detection and nickel column

A405+ [1]: 1.97 A405
Ratio(+/-) [2]: 22.4
B26: Nanobody No. 25 (VHH)
VHH: B24 VHH with G16E, S17T, L87P
notes: also called 25; not shown: tags (HA, His) implied by anti-HA detection and nickel column

A405+ [1]: 1.99 A405
Ratio(+/-) [2]: 21
B29: Nanobody No. 35 (VHH)
VHH: B28 VHH with S11L, A14P, T23A
notes: also called 35; not shown: tags (HA, His) implied by anti-HA detection and nickel column

A405+ [1]: 2.26 A405
Ratio(+/-) [2]: 20
B30: Nanobody No. 34 (VHH)
VHH: B28 VHH with A24V
notes: also called 34; not shown: tags (HA, His) implied by anti-HA detection and nickel column

A405+ [1]: 2.22 A405
Ratio(+/-) [2]: 21.6
B31: Nanobody No. 36 (VHH)
VHH: B28 VHH with G16E, T23R, A24T, T28S
notes: also called 36; not shown: tags (HA, His) implied by anti-HA detection and nickel column

A405+ [1]: 2.36 A405
Ratio(+/-) [2]: 25.3
B32: Nanobody No. 32 (VHH)
VHH: B28 VHH with P41S
notes: also called 32; not shown: tags (HA, His) implied by anti-HA detection and nickel column

A405+ [1]: 2.1 A405
Ratio(+/-) [2]: 19.6
B33: Nanobody No. 37 (VHH)
VHH: B28 VHH with G16E, S17T, A24V, V32A, E44Q, S56I, I69V
notes: also called 37; not shown: tags (HA, His) implied by anti-HA detection and nickel column
